The assay has as its target antigen CD3 (Biacore analysis) (Homo sapiens (Human)) (UniProt P07766). The experiment in a line: SPR (Biacore). For orientation: In SPR one partner is held on a chip, and binding of the other changes the refractive index at the surface.

Here are results for one molecule from patent publication US20190359732A1.

B1: huOKT3 IgG1-aGlyco (antibody, V domains shown)
VH: QVQLVQSGGGVVQPGRSLRLSCKASGYTFTRYTMHWVRQAPGKGLEWIGYINPSRGYTNYNQKFKDRFTISRDNSKNTAFLQMDSLRPEDTGVYFCARYYDDHYCLDYWGQGTPVTVSS
VL: DIQMTQSPSSLSASVGDRVTITCSASSSVSYMNWYQQTPGKAPKRWIYDTSKLASGVPSRFSGSGSGTDYTFTISSLQPEDIATYYCQQWSSNPFTFGQGTKLQITR
With B1, the Kd (usually the concentration at which binding is half-saturated) is 64.6 nM; the off-rate constant (koff) (as a rule, the first-order rate constant of dissociation) is 0.109 s⁻¹; the kon (as a rule, the second-order rate constant of association) was determined as 1.68e+06 M⁻¹ s⁻¹.
